Substrate in data set [1]: CC[C@@H](C)[C@@H](N)C(=O)N1CCC[C@H]1C(=O)N[C@@H](CCCNC(=N)N)C(=O)Nc1ccc([N+](=O)[O-])cc1
Put plainly: Km determination of amidolytic chromogenic substrates with v-PA β. In kind it is biochemical, Desmodus rotundus. As to conditions: other: v-PA β, 3 units per hole, 100 mM Tris pH 8.0/100 mM NaCl/0.01% Tween 80, 37° C., Lineweaver-Burk plot. As for the experimental part: (§1) In a 96-hole plate, respectively 90 μl of 100 mM Tris pH 8.0/100 mM NaCl/0.01% "Tween" 80 and 50 μl of the corresponding chromogenic substrate (all from Kabi Vitrum, Stockholm, Sweden) in the final concentrations of 0.03/0.06/0.1/0.3/0.6 and 1 mM are incubated with 10 μl (3 units per hole) of the corresponding plasminogen activator at 37° C., and the thus-released p-nitroaniline is determined photometrically at 405 nm at various points in time between 0-7 hours. The resultant data are evaluated with the aid of a Lineweaver-Burk plot, and the Km value is determined (Segel, I. H., Enzyme Kinetics, John Wiley and Sons, New York). The following chromogenic substrates were utilized:

Substrate in data set [2]: N=C(N)NCCC[C@H](NC(=O)CNC(=O)[C@@H]1CCC(=O)N1)C(=O)Nc1ccc([N+](=O)[O-])cc1
The data set is described as above. Particulars: other: v-PA β, 3 units per hole, 100 mM Tris pH 8.0/100 mM NaCl/0.01% Tween 80, 37° C., Lineweaver-Burk plot. The data set is classed as biochemical, Desmodus rotundus. Here is the method: as §1

Substrate in data set [3]: N=C(N)NCCC[C@H](NC(=O)CNC(=O)[C@@H]1CCC(=O)N1)C(=O)Nc1ccc([N+](=O)[O-])cc1
Put plainly: Km determination of amidolytic chromogenic substrates with t-PA. In kind it is biochemical. Particulars: other: t-PA, 3 units per hole, 100 mM Tris pH 8.0/100 mM NaCl/0.01% Tween 80, 37° C., Lineweaver-Burk plot. As for the experimental part:
as §1

Substrate in data set [4]: CC[C@@H](C)[C@@H](N)C(=O)N1CCC[C@H]1C(=O)N[C@@H](CCCNC(=N)N)C(=O)Nc1ccc([N+](=O)[O-])cc1
Put plainly: Km determination of amidolytic chromogenic substrates with v-PA α1. The data set is classed as biochemical, Desmodus rotundus. Particulars: other: v-PA α1, 3 units per hole, 100 mM Tris pH 8.0/100 mM NaCl/0.01% Tween 80, 37° C., Lineweaver-Burk plot. As for the experimental part:
as §1

Substrate in data set [5]: N=C(N)NCCC[C@H](NC(=O)CNC(=O)[C@@H]1CCC(=O)N1)C(=O)Nc1ccc([N+](=O)[O-])cc1
Described as above. As to conditions: other: v-PA α1, 3 units per hole, 100 mM Tris pH 8.0/100 mM NaCl/0.01% Tween 80, 37° C., Lineweaver-Burk plot. The data set is classed as biochemical, Desmodus rotundus. As for the experimental part:
as §1

The text below walks through data of patent US6008019A, “Plasminogen activator from saliva of the vampire bat” (Schering Aktiengesellschaft, priority 1989, dated 1999).

B1: Desmodus rotundus saliva plasminogen activator v-PA β (Desmodus rotundus) (protein)
chain: AYGGCSELRCFNGGTCWQAASFSDFVCQCPKGYTGKQCEVDTHATCYKDQGVTYRGTWSTSESGAQCINWNSNLLTRRTYNGRRSDAITLGLGNHNYCRNPDNNSKPWCYVIKASKFILEFCSVPVCSKATCGLRKYKEPQLHSTGGLFTDITSHPWQAAIFAQNRRSSGERFLCGGILISSCWVLTAAHCFQERYPPQHLRVVLGRTYRVKPGKEEQTFEVEKCIIHEEFDDDTYNNDIALLQLKSGSPQCAQESDSVRAICLPEANLQLPDWTECELSGYGKHKSSSPFYSEQLKEGHVRLYPSSRCTSKFLFNKTVTNNMLCAGDTRSGEIYPNVHDACQGDSGGPLVCMNDNHMTLLGIISWGVGCGEKDIPGVYTKVTNYLGWIRDNMRP
notes: from tissue
What is called Km is the concentration of substrate that gives half-maximal velocity. As to B1, the Km in data set [1] and in data set [2] was 2000 µM each time.

B2: t-PA (tissue-type plasminogen activator) (Homo sapiens) (protein)
chain: SYQVICRDEKTQMIYQQHQSWLRPVLRSNRVEYCWCNSGRAQCHSVPVKSCSEPRCFNGGTCQQALYFSDFVCQCPEGFAGKCCEIDTRATCYEDQGISYRGTWSTAESGAECTNWNSSALAQKPYSGRRPDAIRLGLGNHNYCRNPDRDSKPWCYVFKAGKYSSEFCSTPACSEGNSDCYFGNGSAYRGTHSLTESGASCLPWNSMILIGKVYTAQNPSAQALGLGKHNYCRNPDGDAKPWCHVLKNRRLTWEYCDVPSCSTCGLRQYSQPQFRIKGGLFADIASHPWQAAIFAKHRRSPGERFLCGGILISSCWILSAAHCFQERFPPHHLTVILGRTYRVVPGEEEQKFEVEKYIVHKEFDDDTYDNDIALLQLKSDSSRCAQESSVVRTVCLPPADLQLPDWTECELSGYGKHEALSPFYSERLKEAHVRLYPSSRCTSQHLLNRTVTDNMLCAGDTRSGGPQANLHDACQGDSGGPLVCLNDGRMTLVGIISWGLGCGQKDVPGVYTKVTNYLDWIRDNMRP
Regarding B2, the Km in data set [3] turned out to be 2000 µM.

B3: Desmodus rotundus saliva plasminogen activator v-PA α1 (Desmodus rotundus) (protein)
chain: AYGVACKDEITQMTYRRQESWLRPEVRSKRVEHCQCDRGQARCHTVPVNSCSEPRCFNGGTCWQAVYFSDFVCQCPAGYTGKRCEVDTRATCYEGQGVTYRGTWSTAESRVECINWNSSLLTRRTYNGRMPDAFNLGLGNHNYCRNPNGAPKPWCYVIKAGKFTSESCSVPVCSKATCGLRKYKEPQLHSTGGLFTDITSHPWQAAIFAQNRRSSGERFLCGGILISSCWVLTAAHCFQESYLPDQLKVVLGRTYRVKPGEEEQTFKVKKYIVHKEFDDDTYNNDIALLQLKSDSPQCAQESDSVRAICLPEANLQLPDWTECELSGYGKHKSSSPFYSEQLKEGHVRLYPSSRCAPKFLFNKTVTNNMLCAGDTRSGEIYPNVHDACQGDSGGPLVCMNDNHMTLLGIISWGVGCGEKDVPGVYTKVTNYLGWIRDNMHL
notes: from tissue
On to B3, for which the Km in data set [4] turned out to be 1000 µM; in data set [5], 2000 µM.
